Source: patent publication US7259247

Biological target: CD28 (UniProt P10747)
Test: cell-based or functional assay

Chain of UniProt P10747 (P10747 19-220 limits assumed): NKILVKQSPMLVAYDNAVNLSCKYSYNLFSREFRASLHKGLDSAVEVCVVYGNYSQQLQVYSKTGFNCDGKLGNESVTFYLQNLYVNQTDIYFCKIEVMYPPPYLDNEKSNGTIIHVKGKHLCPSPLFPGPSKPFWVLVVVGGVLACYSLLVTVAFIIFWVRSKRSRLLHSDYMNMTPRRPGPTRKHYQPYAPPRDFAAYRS

- expression of other activation antigens on CD4+ T cells, suboptimal OKT3, plate-bound antibody costimulation: 4 to 100 fold
Substance: anti-CD28 antibody 9.3
